# Measurements as given in US7740850B2, “PDGFRβ-specific antibodies” (ImClone, LLC, priority 2007, dated 2010).
# Assays:
# mouse PDGFRα = mouse PDGFRα (Mus musculus, UniProt P26618); experiment: Binding to PDGFRα; conditions: data not shown
# PDGFRβ in D122 cells = target: T1, PDGFRβ in D122 cells (Mus musculus, UniProt P05622); experiment: PDGF-BB-stimulated receptor phosphorylation (Western blot); format: cell-based
# T1 construct: endogenous in cells; host or cells: D122
# Method: (§1) Receptor phosphorylation was determined for NIH/3T3 and D122 cells. The cells were plated onto 6 cm dishes and grown to 70-80% confluence, after which the cells were washed twice in PBS and cultured overnight in serum free medium. […] The cells were lysed in lysis buffer (50 mM Tris-HCl, pH 7.4, 150 mM NaCl, 1% TritonX-100, 1 mM EDTA, 1 mM phenylmethylsulfonyl fluoride, 0.5 mM Na3VO4 1 μg/ml leupeptin, 1 μg/ml pepstatin, and 1 μg/ml aprotinin) for 1 h, followed by centrifugation of the lysate at 12,000 rpm for 10 min at 4° C. The receptors were immunoprecipitated from the cell lysate supernatant by an anti-mPDGFRβ antibody (R&D Systems Inc), followed by the addition of 20 μl of ProA/G-sepharose beads. The precipitated receptor proteins were resolved on a 4-12% NuPAGE Bis-Tris gel and transferred to a polyvinylidene difluoride membrane. Phospho-mPDGFRβ protein was detected on the blot using an anti-phospho-tyrosine antibody-HRP conjugate (Santa Cruz Biotech, Santa Cruz, Calif.). Total receptor proteins loaded on the gel were assayed with an antibody to mPDGFRβ.
# PDGFRβ in NIH/3T3 cells = target: T2, PDGFRβ in NIH/3T3 cells (Mus musculus, UniProt P05622); experiment: as above; format: cell-based
# T2 construct: Receptor phosphorylation was determined for NIH/3T3 and D122 cells; endogenous in cells; host or cells: NIH/3T3
# Method: as §1
# 2β3α = experiment: Epitope mapping, PDGFRβ/α chimera; format: binding; conditions: ✓ / X, key not given
# Method: Various chimeric constructs of PDGFRβ and PDGFRα were first made by domain swapping, starting from N-terminus to C-terminus with PDGFRβ domain(s) replacing PDGFRα domain(s). The PDGFRβ/α chimera were tested for the ability of 2C5 binding. Shorter versions of PDGFRβ, including D1D2, D2D3 and D1D2D3, were then made to confirm the 2C5 binding domains on PDGFRβ.
# T2 sequence (P05622 32-1098): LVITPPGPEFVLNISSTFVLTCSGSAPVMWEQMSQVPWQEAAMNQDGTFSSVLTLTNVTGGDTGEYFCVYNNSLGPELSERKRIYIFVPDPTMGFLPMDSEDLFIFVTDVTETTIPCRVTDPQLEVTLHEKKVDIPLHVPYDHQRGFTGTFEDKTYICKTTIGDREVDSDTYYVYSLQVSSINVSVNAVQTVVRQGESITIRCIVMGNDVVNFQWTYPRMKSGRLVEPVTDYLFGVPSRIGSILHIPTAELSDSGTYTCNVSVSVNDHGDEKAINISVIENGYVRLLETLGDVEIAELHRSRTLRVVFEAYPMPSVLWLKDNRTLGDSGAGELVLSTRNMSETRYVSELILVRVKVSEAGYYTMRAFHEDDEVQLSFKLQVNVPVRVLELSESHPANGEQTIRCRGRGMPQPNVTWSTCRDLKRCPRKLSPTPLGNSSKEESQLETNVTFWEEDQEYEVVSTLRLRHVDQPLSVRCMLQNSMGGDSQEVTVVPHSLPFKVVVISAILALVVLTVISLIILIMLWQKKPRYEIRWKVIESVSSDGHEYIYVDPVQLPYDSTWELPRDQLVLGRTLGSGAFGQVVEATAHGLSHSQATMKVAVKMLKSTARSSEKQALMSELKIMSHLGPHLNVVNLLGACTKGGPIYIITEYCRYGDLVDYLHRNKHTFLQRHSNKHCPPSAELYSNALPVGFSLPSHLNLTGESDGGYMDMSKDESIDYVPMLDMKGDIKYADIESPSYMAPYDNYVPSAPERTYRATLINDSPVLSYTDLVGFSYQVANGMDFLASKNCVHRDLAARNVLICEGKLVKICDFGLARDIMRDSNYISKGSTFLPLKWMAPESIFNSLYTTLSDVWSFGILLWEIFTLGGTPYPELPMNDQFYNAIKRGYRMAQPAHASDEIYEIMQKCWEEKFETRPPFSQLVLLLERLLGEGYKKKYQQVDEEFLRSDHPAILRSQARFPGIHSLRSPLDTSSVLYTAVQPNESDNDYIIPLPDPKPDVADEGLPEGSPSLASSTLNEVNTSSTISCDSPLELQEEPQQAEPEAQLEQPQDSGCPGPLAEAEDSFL
# T1 sequence (P05622 32-1098): as above
# Sequence of mouse PDGFRα (P26618 25-1089): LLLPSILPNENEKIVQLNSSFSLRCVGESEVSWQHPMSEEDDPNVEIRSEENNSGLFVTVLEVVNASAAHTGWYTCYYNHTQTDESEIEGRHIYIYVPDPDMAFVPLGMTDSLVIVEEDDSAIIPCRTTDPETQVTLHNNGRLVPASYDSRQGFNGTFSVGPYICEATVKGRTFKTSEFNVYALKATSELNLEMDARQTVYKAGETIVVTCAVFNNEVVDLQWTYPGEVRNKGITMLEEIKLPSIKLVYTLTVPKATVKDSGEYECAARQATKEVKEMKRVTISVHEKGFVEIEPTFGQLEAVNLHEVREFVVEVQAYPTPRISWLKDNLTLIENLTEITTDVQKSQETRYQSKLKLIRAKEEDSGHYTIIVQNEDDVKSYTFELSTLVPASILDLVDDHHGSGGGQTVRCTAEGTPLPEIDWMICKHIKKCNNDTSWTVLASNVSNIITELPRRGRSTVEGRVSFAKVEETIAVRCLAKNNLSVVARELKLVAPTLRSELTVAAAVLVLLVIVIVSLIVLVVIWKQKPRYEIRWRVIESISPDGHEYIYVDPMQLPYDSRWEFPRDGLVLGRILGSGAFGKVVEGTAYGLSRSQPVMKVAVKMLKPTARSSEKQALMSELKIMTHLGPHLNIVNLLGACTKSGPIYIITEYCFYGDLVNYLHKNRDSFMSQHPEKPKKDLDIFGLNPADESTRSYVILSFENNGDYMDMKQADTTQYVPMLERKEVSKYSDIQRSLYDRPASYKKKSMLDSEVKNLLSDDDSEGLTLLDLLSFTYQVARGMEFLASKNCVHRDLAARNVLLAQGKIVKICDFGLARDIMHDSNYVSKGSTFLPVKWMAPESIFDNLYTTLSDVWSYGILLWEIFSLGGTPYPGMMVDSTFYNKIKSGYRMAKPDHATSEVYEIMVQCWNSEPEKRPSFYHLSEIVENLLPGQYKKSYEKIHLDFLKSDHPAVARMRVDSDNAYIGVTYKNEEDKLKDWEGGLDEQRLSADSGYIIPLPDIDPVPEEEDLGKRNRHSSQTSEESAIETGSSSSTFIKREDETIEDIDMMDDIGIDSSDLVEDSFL
Molecule,binding to mouse PDGFRα (mouse PDGFRα),inhibition of PDGF-BB-stimulated receptor phosphorylation (PDGFRβ in D122 cells),inhibition of PDGF-BB-stimulated receptor phosphorylation (PDGFRβ in NIH/3T3 cells),binding to 2β3α (2β3α)
"1B3: human anti-mouse PDGFRβ antibody from Fab phage display library, human κ/γ1 constant regions; SEQ ID NOS in Table 1 (antibody, listed as Homo sapiens, V domains shown, human kappa/gamma1 constant regions) VH: QVQLQESGGGLVKPGGSLRLSCAASGFTFSSYSMNWVRQAPGKGLEWVSSISSSSSYIYYADSVKGRFTISRDNSKNTLYLQMNSLRAEDTAVYYCAKGGRPLLVFDFWGQGTLVTVS VL: EIVMTQSPGTLSLSPGERATLSCRASQSVSSSYLAWYQQKPGQAPRLLIYDASKRATGIPARFSGSGSGTDFTLTISTLESEDSAVYYCQQRGYWPPITFGQGTRLEIKR",did not bind,inhibited PDGF-BB-stimulated receptor phosphorylation in both NIH/3T3 and D122 cells in a dose dependent manner,inhibited PDGF-BB-stimulated receptor phosphorylation in both NIH/3T3 and D122 cells in a dose dependent manner,–
"2C5: PDGFRβ-specific human antibody binding both human and murine PDGFRβ; SEQ ID NOS in Table 1 (antibody, listed as Homo sapiens, V domains shown) VH: QVQLVQSGAEVKKPGSSVKVSCKASGGTFSSYAISWVRQAPGQGLEWMGRIIPILGIANYAQKFQGRVTITADKSTSTAYMELSSLRSEDTAVYYCARDMGSRNYYYFYWGQGTLVTVSS VL: EIVLTQSPATLSLSPGERATLSCRASQSVGRYLAWYQQKPGQAPRLLIYGASNRATGIPARFSGSGSGTDFTLTISSLEPEDFAVYYCQQRSNWPLTFGGGTKVEIK",–,–,–,✓
